Consider 13 molecules from patent US20250304677A1 (VIB VZW, published 2025).

For assay [1], the target named is T1, human folate receptor alpha (hFRα), recombinant protein (human, UniProt P15328 25-233).
T1 construct: Bought recombinant proteins (His-tagged, or biotinylated via Avi-tag, e.g. AcroBiosystems FO1-H82E2, F01-H52H1); also called hFOLR1; huFOLR1
Put plainly: BLI off-rate screening, crude periplasmic extract, biotinylated human FRα on streptavidin biosensors. The method, then: (§1) Non-redundant clones were tested as crude periplasmatic extracts for binding analysis to human FRα and mouse FRα proteins captured on streptavidin biosensors in BLI. Variants P0150001 and P0150005 grown in the same 96-well plates were included as controls.

Assay [2] deals with T2, mouse folate receptor alpha (mFRα), recombinant protein (mouse, UniProt P35846 25-232).
T2 construct: Bought recombinant proteins (e.g. biotinylated, Acro Biosystems FO1-M82E9); also called mFOLR1; Ms FOLR1
T2 sequence (P35846 25-232 limits assumed): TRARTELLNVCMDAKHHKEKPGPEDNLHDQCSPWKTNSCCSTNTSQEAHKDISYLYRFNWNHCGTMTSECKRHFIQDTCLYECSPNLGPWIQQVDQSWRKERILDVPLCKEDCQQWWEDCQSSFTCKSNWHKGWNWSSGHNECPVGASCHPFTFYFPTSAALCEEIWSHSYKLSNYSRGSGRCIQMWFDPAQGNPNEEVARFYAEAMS
Put plainly: BLI off-rate screening, crude periplasmic extract, biotinylated mouse FRα on streptavidin biosensors. The procedure:
as §1

For assay [3], the target named is T1, human folate receptor alpha (hFRα), …. Put plainly: BLI off-rate analysis.
Assay [4] addresses T2, mouse folate receptor alpha (mFRα), …. In words: BLI off-rate analysis.
Assay [5] deals with T1, human folate receptor alpha (hFRα), …. Put plainly: BLI. The gist of the method:
(§2)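 Off-rates were measured by biolayer interferometry on biotinylated human and mouse folate receptor alpha immobilised on streptavidin biosensors. koff was calculated with a 1:1 binding model. Fold change for each variant is relative to its wild-type VHH. It is wild-type koff divided by variant koff when the variant's off-rate is better, and the negative of variant koff divided by wild-type koff when it is worse.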

The target in assay [6] is T2, mouse folate receptor alpha (mFRα), …. Put plainly: BLI. The gist of the method:
as §2

Assay [7] addresses T3, rhesus monkey folate receptor alpha, recombinant (rhesus monkey, UniProt F7BP60 25-233).
T3 construct: also called rhFolR1; rhesus macaque FRα
In words: BLI, VHH captured by anti-FLAG antibody on mouse Fc biosensors. The gist of the method:
(§3)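 VHHs were captured with an anti-FLAG tag antibody on mouse Fc biosensors. Binding to rhesus monkey, mouse and human folate receptor alpha was then measured by biolayer interferometry. kon, koff and the equilibrium dissociation constant (KD) were calculated using a 1:1 binding model.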

Assay [8] deals with T2, mouse folate receptor alpha (mFRα), …. Described as above. Summed up: as §3
Assay [9] concerns the target T4, human folate receptor alpha expressed on cells (transfected HEK293T, HeLa, MCF7, MDA-MB-231) (human, UniProt P15328 25-234).
T4 construct: HEK293T transiently transfected with human FOLR1; also called native human FRα; cell-expressed human FOLR1
In words: flow cytometry on HeLa cells, anti-Flag detection. The method, then:
EC₅₀ values are found in Table 9. Detection of VHH cell binding was done through anti-Flag M2 mIgG1 followed by anti-mFc-PE in flow cytometry. Results are depicted as mean fluorescence intensity ^{∘}MFI).
(§4) Off-rates of purified variants were determined to human, mouse, and cynomolgus FRα in BLI. In addition, binding of the affinity optimised variants to cell-expressed human FRα on HeLa cells was determined by flow cytometry ^{∘}FIG. 10 B).

Assay [10] deals with T1, human folate receptor alpha (hFRα), …. Put plainly: BLI, Avi-biotinylated FRα on streptavidin biosensors, VHH 100 nM. The method, then: (§5) The binding of humanized variants of 2HFO42 was assessed by kinetic binding analysis to mouse and human FRα protein, biotinylated via an Avi-tag, captured on streptavidin biosensors by biolayer interferometry ^{∘}BLI), essentially as described earlier. VHHs were analysed at 100 nM concentration, and off-rates were determined using fitting of 1:1 langmurian interaction. Dissociation constants were compared to 2HFO42^{∘}Q1E, Q5V, Q108L) ^{∘}P101500004) and 2MFR67 ^{∘}Q1E, Q5V, Q108L) ^{∘}P0150000), respectively.

Assay [11] concerns the target T2, mouse folate receptor alpha (mFRα), …. Described as above. The method, then: as §5
Assay [12] deals with T1, human folate receptor alpha (hFRα), …. In words: BLI, Avi-biotinylated FRα. The procedure:
(§6) Purified VHHs ^{∘}100 nM) were analysed for binding to avi-tagged biotinylated FRα protein captured on streptavidin-biosensors via BLI.
as §4

Assay [13] has as its target T2, mouse folate receptor alpha (mFRα), …. In words: BLI, Avi-biotinylated FRα. The procedure:
as §6, §4

In assay [14] the target is T1, human folate receptor alpha (hFRα), …. In words: BLI, purified VHH. The gist of the method:
(§7)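 VHH proteins carrying a flag3-His6 tag were expressed in TG-1 E. coli at 0.5 L scale. Each was purified from the periplasmic fraction on Ni Sepharose FastFlow columns, then desalted, and its purity was checked by SDS-PAGE. Biolayer interferometry was used to measure off-rates to human, mouse and cynomolgus folate receptor alpha.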

Assay [15] addresses T2, mouse folate receptor alpha (mFRα), …. Put plainly: BLI, purified VHH. Summed up: as §7
The target in assay [16] is T5, cynomolgus folate receptor alpha, recombinant (cynomolgus, UniProt A0A2K5U044 25-233).
T5 construct: also called cyFOLR1; cynomolgus FRα
T5 sequence (A0A2K5U044 entry or part of it): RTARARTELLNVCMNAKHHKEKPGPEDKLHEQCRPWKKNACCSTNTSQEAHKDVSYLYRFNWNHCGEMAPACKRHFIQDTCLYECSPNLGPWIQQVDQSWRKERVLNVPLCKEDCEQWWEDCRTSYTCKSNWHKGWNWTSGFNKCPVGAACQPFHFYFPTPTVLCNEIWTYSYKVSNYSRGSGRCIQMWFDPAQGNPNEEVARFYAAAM
Put plainly: BLI, purified VHH. Summed up: as §7

T1 sequence (P15328 25-233 limits assumed): as the sequence (A0A2K5U044 entry or part of it) above, with T2I, R4W, K37R, P146A, Y171H counted along it
T3 sequence (F7BP60 entry or part of it): as the sequence (A0A2K5U044 entry or part of it) above
T4 sequence (P15328 25-234 limits assumed): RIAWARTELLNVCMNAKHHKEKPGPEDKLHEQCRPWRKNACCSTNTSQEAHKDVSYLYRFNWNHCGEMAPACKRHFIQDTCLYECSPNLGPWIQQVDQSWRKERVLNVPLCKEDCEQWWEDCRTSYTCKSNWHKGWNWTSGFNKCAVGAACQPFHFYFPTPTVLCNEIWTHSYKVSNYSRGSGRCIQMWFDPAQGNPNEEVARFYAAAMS

B1: [S30I] (VHH)
VHH: EVQLVESGGGLVQPGGSLRLSCAASGSGFIGMIMGWYRQAPGKQRELVATVTSHGTTNYADSVKGRFTISRDNAKNTVYLQMNSLRPEDTAVYYCNAHFPGIYWGKGTLVTVSS
notes: library clone tested as crude periplasmic extract; also called P01500001[S30I]
With B1, the binding result in assay [1] and in assay [2] was “binds” each time.

B2: P01500079: P01500001[E1D]Flag3-His6-GS-NT (VHH)
VHH: DVQLVESGGGLVQPGGSLRLSCAASGSGFSGMIMGWYRQAPGKQRELVATVTSHGTTNYADSVKGRFTISRDNAKNTVYLQMNSLRPEDTAVYYCNAHFPGIYWGKGTLVTVSS
notes: Entry includes tags, linker and NT(8-13); also called humanised 2HFO42, P01500079
Consider B2, for which the koff in [3] was found to be 0.0101 s⁻¹; in assay [4], 0.00224 s⁻¹.

B3: P01500006: 2HF042(Q1E, Q5V, A14P, V40A, L79Y, K83R, Q108L)-FLAG3-HIS6 (VHH)
VHH: EVQLVESGGGLVQPGGSLRLSCAASGSGFSGMIMGWYRQAPGKQRELVATVTSHGTTNYADSVKGRFTISRDNAKNTVYLQMNSLRPEDTAVYYCNAHFPGIYWGKGTLVTVSS
notes: Entry includes the tags; also called P0150006
As to B3, the off-rate constant (koff) stood at 0.0132 s⁻¹ in assay [5]; 0.00162 s⁻¹ in assay [6]; 0.016 s⁻¹ in assay [7]; 0.00249 s⁻¹ in assay [8]; 0.012 s⁻¹ in [10]; 0.00252 s⁻¹ in [11]. Moreover, the koff in assay [12] is 0.00967 s⁻¹; in assay [13], 0.00189 s⁻¹; in assay [14], 0.00947 s⁻¹; in assay [15] it was 0.00174 s⁻¹; in [16], 0.00158 s⁻¹. Further, the “nm (Fold wt)” value in [5] and in assay [6] was 1 throughout. Also, the Kd in [7] is 27.7 nM; in assay [8] it was 6.77 nM. For the same molecule, the values for the on-rate (kon) in assay [7] and in assay [8] were 577000 M⁻¹ s⁻¹ and 367000 M⁻¹ s⁻¹, respectively. Also, the EC50 in [9] was 32.4 nM. For the same molecule, the MFI top in assay [9] came out at 35300 MFI.

B4: P01500072: P01500001[E1D, G26E, G28P, D72E, N73G]Flag3-His6-GS-NT (VHH)
VHH: DVQLVESGGGLVQPGGSLRLSCAASESPFSGMIMGWYRQAPGKQRELVATVTSHGTTNYADSVKGRFTISREGAKNTVYLQMNSLRPEDTAVYYCNAHFPGIYWGKGTLVTVSS
notes: Entry includes tags, linker and NT(8-13)
For B4, the koff in assay [3] was determined as 0.000307 s⁻¹; in assay [4], 2.1e-05 s⁻¹.

B5: [V51R] (VHH)
VHH: EVQLVESGGGLVQPGGSLRLSCAASGSGFSGMIMGWYRQAPGKQRELVATRTSHGTTNYADSVKGRFTISRDNAKNTVYLQMNSLRPEDTAVYYCNAHFPGIYWGKGTLVTVSS
notes: library clone tested as crude periplasmic extract; also called P01500001[V51R]
As to B5, the binding result in assay [1] and in assay [2] was “binds” each time.

B6: P01500075: P01500001[E1D, I33L, N73P]Flag3-His6-GS-NT (VHH)
VHH: DVQLVESGGGLVQPGGSLRLSCAASGSGFSGMLMGWYRQAPGKQRELVATVTSHGTTNYADSVKGRFTISRDPAKNTVYLQMNSLRPEDTAVYYCNAHFPGIYWGKGTLVTVSS
notes: as for B4
In the case of B6, the koff was 0.00125 s⁻¹ in assay [3] and 0.000125 s⁻¹ in assay [4].

B7: P01500073: P01500001[E1D, G28T, S30I]Flag3-His6-GS-NT (VHH)
VHH: DVQLVESGGGLVQPGGSLRLSCAASGSTFIGMIMGWYRQAPGKQRELVATVTSHGTTNYADSVKGRFTISRDNAKNTVYLQMNSLRPEDTAVYYCNAHFPGIYWGKGTLVTVSS
notes: as for B4
As for B7, the off-rate constant (koff) came to 0.00346 s⁻¹ in assay [3] and 0.000497 s⁻¹ in assay [4].

B8: P01500070: P01500001[E1D, I33F, N73P]Flag3-His6-GS-NT (VHH)
VHH: DVQLVESGGGLVQPGGSLRLSCAASGSGFSGMFMGWYRQAPGKQRELVATVTSHGTTNYADSVKGRFTISRDPAKNTVYLQMNSLRPEDTAVYYCNAHFPGIYWGKGTLVTVSS
notes: Entry includes tags, linker and NT(8-13); produced in HEK-F cells
As to B8, the koff in assay [3] worked out at 0.00151 s⁻¹; in [4] it was 0.000192 s⁻¹.

B9: P01500074: P01500001[E1D, G26E, I33L]Flag3-His6-GS-NT (VHH)
VHH: DVQLVESGGGLVQPGGSLRLSCAASESGFSGMLMGWYRQAPGKQRELVATVTSHGTTNYADSVKGRFTISRDNAKNTVYLQMNSLRPEDTAVYYCNAHFPGIYWGKGTLVTVSS
notes: as for B4
On to B9, for which the koff in assay [3] came to 0.00181 s⁻¹; in [4], 0.000328 s⁻¹.

B10: P01500007: 2HF042(Q1E, Q5V, A14P, V40A, L79Y, K83R, K105Q, Q108L)-FLAG3-HIS6 (VHH)
VHH: EVQLVESGGGLVQPGGSLRLSCAASGSGFSGMIMGWYRQAPGKQRELVATVTSHGTTNYADSVKGRFTISRDNAKNTVYLQMNSLRPEDTAVYYCNAHFPGIYWGQGTLVTVSS
notes: Entry includes the tags
Consider B10, for which the values for the koff in assay [10] and in [11] were 0.0164 s⁻¹ and 0.00292 s⁻¹, respectively.

B11: P01500077: P01500001[E1D, G28T, S30I, N73P]Flag3-His6-GS-NT (VHH)
VHH: DVQLVESGGGLVQPGGSLRLSCAASGSTFIGMIMGWYRQAPGKQRELVATVTSHGTTNYADSVKGRFTISRDPAKNTVYLQMNSLRPEDTAVYYCNAHFPGIYWGKGTLVTVSS
notes: as for B4
Regarding B11, the figures for the koff in assay [3] and in [4] were 0.00217 s⁻¹ and 0.000335 s⁻¹, respectively.

B12: P01500076: P01500001[E1D, G26E, G28T, S30I, I33L]Flag3-His6-GS-NT (VHH)
VHH: DVQLVESGGGLVQPGGSLRLSCAASESTFIGMLMGWYRQAPGKQRELVATVTSHGTTNYADSVKGRFTISRDNAKNTVYLQMNSLRPEDTAVYYCNAHFPGIYWGKGTLVTVSS
notes: as for B4
As to B12, the koff in assay [3] turned out to be 0.00112 s⁻¹; in [4], 0.000164 s⁻¹.

B13: P01500071: P01500001[E1D, G26E, I33F]Flag3-His6-GS-NT (VHH)
VHH: DVQLVESGGGLVQPGGSLRLSCAASESGFSGMFMGWYRQAPGKQRELVATVTSHGTTNYADSVKGRFTISRDNAKNTVYLQMNSLRPEDTAVYYCNAHFPGIYWGKGTLVTVSS
notes: as for B4
With B13, the values for the koff in assay [3] and in assay [4] were 0.00266 s⁻¹ and 0.000326 s⁻¹, respectively.
